Assay: label from the status in PepcDB records

Question: With “MNAENNQTTTTHSKVISHVFCTGTAKLGSVGPPIGLVDIGVSEVAYIFRVSLPGIEKNQDKIKCEIQREGRVCIQGVIPEIAIPSDTGCLYRMQVQQLCPPGPFSITFNLPGQVDPRLFSPNFRSDGIFEVVVVKLGVRIPTS” as the sequence, how does the protein production read?
Answer: failed

Question: With “MDASTSFAILPSNVKQKTAFPRKINQVKTASWANNCLTGTLDVGHFSCYFVNEKIARVTVNPFGEADLTPSIAAINDTEKQAAVFTETNDHYELQFADKKLIVSKNPFQIIMKQAGKTIFQTEGLAINRDKEHQISIQSKPGTAIFGLGEKTGALNKAGSIISMWNTDVYSPHNKDTVELYQSIPFMIADTEETTYGLFYDNSHRTEFDFQSFEEMYTILAEGGQANLYVIFGEDVKEVVANYTNLTGKTPLPPKWSLGYHQSRYSYTSEEEVERIANTFKEKEIPLDCVFMDIHYMDDFRVFTFNPDTFPNGPELIARLREQNIDVVPIVDPGIKKDVNYSVYQEGIKHHYFCRKLEGAIYYGDVWPGVSAFPDFLSTTVQRWWGDLHQFYTDLGIRGIWNDMNEPSVFNESKTMDLDVVHNMDGKNVTHKEAHNLYGLYMSKATFEGLKRLVPNERPFSLTRAGYAGVQRYSAVWTGDNRSHWEHLEMSLPMIMNLGLSGVAFTGADVGGFSSDCTKEMLIRWTQAGAFLPYFRNHCVQDSIYQEPWAFGLDAEKIVKKYIEMRYTFLPYIYTEFQKTAENGLPIVRPLYMEFKEERDLIQVNDQFMLGENILVAPIVREGQVKRLVRLPKGTWFNYWTKEQVEGGDYIIADAPIDVMPIYIKAGTILPLGTSVQNTKEAQDLALEIYLDNDEASGYVYNDDGKSYQYESGKISKTAFTATFKNGEVQINGDHHGEENLQQKVTTIEVFGKKIDKITRAGI” as the sequence, how does the protein production read?
Answer: failed

Question: For “MGHHHHHHSHMIRINEIKLPLDHEEGALLDAITKKLGIPAEKVISFNVFRRGYDARKKTNIHLIYTLDIIVEGDETALLAKFANDPHVRQTPDMEYKFVAKAPENLTERPIVIGFGPCGLFAGLVLAQMGFNPIIVERGKEVRERTKDTFGFWRKRTLNPESNVQFGEGGAGTFSDGKLYSQVKDPNFYGRKVITEFVEAGAPEEILYVSKPHIGTFKLVTMIEKMRATIIELGGEIRFSTRVDGLHMEDGQITGVTLSNGEEIKSRHVVLAVGHSARDTFEMLHERGVYMEAKPFSVGFRIEHKQSMIDEARFGPNAGHPILGAADYKLVHHCKNGRTVYSFCMCPGGTVVAATSEEGRVVTNGMSQYSRAERNANSAIVVGISPEVDYPGDPLAGIRFQRELESNAYKLGGENYDAPAQKIGDFLKGRDPSQLGDVEPSFTPGIKLTDLSKALPPFAVEAIREAIPAFDRKIKGFASEDGLLTGVETRTSSPVCIKRGKDFQSVNLKGFYPAGEGAGYAGGILSAGIDGIKVAEAVARDIVAAMENA”, which protein production is on record?
Answer: not failed

Question: For “MTLVDDRLLESKMTKVEQARAWSPRVISKFETLIKSADDHSLYRVNPLAFARDRAIAEAEAIDLFLHAARCGLFDMSWDVLCPQSGMVLDSFGALRTLKTHYVCGLCDVSGDTDLDDFIEVTFSVSPKLRRLPYHDPETLPVEDFHWKLHFGHDGRLPGQDVRFLDVLRGFVRGMTFLPPGTTTVLRADLGPGALSGVNVQTQAAFAVPISGDRGLAPTLLKIDYDGKRFLPAMPAVPPGPIVIEVANRGPVRGSLLVINWPPELVALTTKPTLDFDPYVSGGALLARQTFRQLFRSERVDEKEGLGIRQITFLFTDLKGSTAMYERLGDLNAYALVREHFALVNAAVQQHSGAVVKTIGDAVMAVFSQPSDAISAALHVFEEIDRFNGDHDGPGIILKIGAHCGPSIAVTLNDNLDYFGQTVNVAARVQSLAEAGQICISEALYSAPGVREMLAGHRVVAFDAPLRGVQGDATVYRIMRE”, which protein production is on record?
Answer: failed

Question: With “MTDACCLKGNEDKMVPRFGHGTWIGKAFNDTPEMLHERSLRQEKRLERANELMNDDSLQKLETAAMARSRSVDSAPLGNYTIWKNEYRRGKSFEDMLRLMQDQIIMARVYSGLAKFTNNLALHQEIETQLMKLAWEEESTDIDQEQRVLDSIRDMGQILARAHEQLYECKLVTNKLRAMLQTVEDELENEQTYITFLTQLASKALPDAIHCLTMRLNLEYHLLPLPMRNFPRRENLENPKLYHYALFSDNVLAASVVVNSTVMNAQDPSRHVFHLVTDKLNFGAMSMWFLLNPPGEATIHVQRFEDFTWLNSSYSPVLSQLESAAMKKFYFKTARSESVESGSENLKYRYPKYMSMLNHLRFYIPRIFPKLEKILFVDDDVVVQKDLTPLWSIDLKGKVNENFDPKFCGWAYGMNIFDLKEWKKNNITETYHFWQNLNENRTLWKLGTLPPGLITFYNLTQPLQRKWHLLGLGYDKGIDVKKIERSAVIHYNGHMKPWTEMGISKYQPYWTKYTNFDHPYIFTCRLFE” as the sequence, how does the protein production read?
Answer: failed

Question: Which protein production does the source give for “MLQYILAEHPFFVATGALYAAAAGFYAAAWRSTRALVGRAATALLCAALAFNAGLIVERWIEAGRAPFKSLFESLVFFAFTTGVVYLAFERLYRTRVFGALAALLTLALLGYALGKWDAEIVKLPPALQSAWFVPHVVVYFVGYAAVSLAALLAAVQLLAPRVPLLQRLTTLRAGTILTGKALDLEQMTYELIRFGFVLLTVGLLVGSVWAKSAWGDFWVWDPKENWSLVTWLVYGAYLHLRKVRGWRGDRAAWLVLLGFAVVMFTYLGMSMLPTAEESAHVYTG” here?
Answer: failed

Question: With “MNDLLSSYLPVLIFIVVSAVIAGGLLVIPYIVAYRSPDPEKLSAYECGFNSFNDARMKFDIRFYLVSILFIIFDLEVAFLFPWAVSFGSIGMFGFWSMIIFLALLTVGFIYEWKKGALEWD” as the sequence, how does the protein production read?
Answer: failed

Question: Which protein production does the source give for “MKLKGVDNKILSNIFSLLSVQGALYIIPLITLPYLVRTLGVENYGVFGFSLAIVSYMSLIVDYGFNITATKTGAEIRYDKNKLSKLFFEILYSKLFMFIICSLSSILFSFFVENNIFNKDIIFVLMFTVFSQVIFPIWFFQAIEELKLVATLNFISKSLSVPLIFILINDEKDLIKLAVIHAITTIIPAIYSVYYIHIRKLVFFYKPSLNSIVSQIKNGWHIFLSGISISFYSTIVTVFLGIFSGATETGYFVAADRLRKAVQGISGPISQSFYPRINSLINTNKKSAINLIKVLYKIQFIVTFILSSLLFIFSEEIVEVLYGNGFVQSIVILKVLSYVPFFVSMSNASGICVIVSFGFNRLFSKIMMFSGGVGVALSFLLINSYGAIGSGLSILISEFIIAIIMIYFVIKLKLLKQ” here?
Answer: failed

Question: With “MNAYLSMNSDWRASMTQTVLVLGASGRFGRNAAEAFGRAGWTVRQFDRKRDDLDAAARGADVIVNAWNPPYPDWAATVPGLHARVIKTAQATGATVIIPGNVYVFGADTPAPWGPDSPHAATNPLGRIRIDMEAAYRASGVRTILLRAGDFLDTCASGNWFDQVMIKRLDKGRFTYPGNPDIPHAWAYLPDLARATVTLSERRETLPVFCDLTYPGYTMTGRQIATGLEQVTGRRVALKRMNWLPLHLARPVWSLAGSLLEMRYLWNTPHSLDGAAFAKVLPEFVQTPFEQALASAIPARLLAAQVHPDQAVAAGL” as the sequence, how does the protein production read?
Answer: failed

Question: Which protein production does the source give for “MSFVAYEELIKEGDTAILSLGHGAMVAVRVQRGAQTQTRHGVLRHSVDLIGRPFGSKVTCGRGGWVYVLHPTPELWTLNLPHRTQILYSTDIALITMMLELRPGSVVCESGTGSGSVSHAIIRTIAPTGHLHTVEFHQQRAEKAREEFQEHRVGRWVTVRTQDVCRSGFGVSHVADAVFLDIPSPWEAVGHAWDALKVEGGRFCSFSPCIEQVQRTCQALAARGFSELSTLEVLPQVYNVRTVSLPPPDLGTGTDGPAGSDTSPFRSGTPMKEAVGHTGYLTFATKTPG” here?
Answer: not failed

Question: Which protein production does the source give for “MEVKKVLVSAFLLTTCLMSGQAQRRNEIQVPDLDGYTTLKCDFHMHSVFSDGLVWPTVRVDEAYRDGLDAISLTEHIEYRPHKQDVVSDHNRSFDLCREQAEKLGILLIKGSEITRAMAPGHFNAIFLSDSNPLEQKDYKDAFREAKKQGAFMFWNHPGWDSQQPDTTKWWPEHTALYQEGCMHGIEVANGHLYMPEAIQWCLDKNLTMIGTSDIHQPIQTDYDFEKGEHRTMTFVFAKERSLQGIREALDNRRTAAYFHELLIGREDLLRPFFEKCVKIEEVSRNEQGVTLSITNVTDLVLKLKKTAHDTLLVYFRDMTLKPHTRYTVRIGFKQGIKGGDVNFEVTNFIVAPDKGLKYTISL” here?
Answer: failed

Question: Which protein production does the source give for “NKDNLDLAGLTSLLSEKIKEFLQEKKMQSFYQQELETVESLQSLASRPVTHSTGSDQVELKDSGTSGVAQRVFKNALQLLQEKGLVFQRDSGSDKLYYVTTKDKDLQ” here?
Answer: not failed

Reference: a protein production outcome set (Wang et al. 2014)
